Columns and labels:
Experiment in all cases: ELISA, lectin-captured E1E2 lysate, Ab 1 ug/ml;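 note: E1E2 captured on Galanthus nivalis lectin-coated plates, bound test antibody read out by an HRP-linked secondary antibody and TMB colour development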
[1] = molecular target: E1E2 complex (H77) with E1 mutation N196A/N305A (HCV genotype 1a, isolate H77, UniProt P27958 192-383; P27958 384-746)
[2] = molecular target: E1E2 complex (H77) with E1 mutation F293A (HCV genotype 1a, isolate H77, UniProt P27958 192-383; P27958 384-746)
[3] = molecular target: E1E2 complex (H77) with E1 mutation L258A (HCV genotype 1a, isolate H77, UniProt P27958 192-383; P27958 384-746)
[4] = molecular target: E1E2 complex (H77) with E1 mutation Y192A (HCV genotype 1a, isolate H77, UniProt P27958 193-383; P27958 384-746)
[5] = molecular target: E1E2 complex (H77) with E1 mutation N305A/N234A (HCV genotype 1a, isolate H77, UniProt P27958 192-383; P27958 384-746)
[6] = molecular target: E1E2 complex (H77) with E1 mutation M322A (HCV genotype 1a, isolate H77, UniProt P27958 192-383; P27958 384-746)
[7] = molecular target: E1E2 complex (H77) with E1 mutation L221A (HCV genotype 1a, isolate H77, UniProt P27958 192-383; P27958 384-746)
[8] = molecular target: E1E2 complex (H77) with E1 mutation V227A (HCV genotype 1a, isolate H77, UniProt P27958 192-383; P27958 384-746)
[9] = molecular target: E1E2 complex (H77) with E1 mutation D206A (HCV genotype 1a, isolate H77, UniProt P27958 192-383; P27958 384-746)
[10] = molecular target: E1E2 complex (H77) with E1 mutation H298A (HCV genotype 1a, isolate H77, UniProt P27958 192-383; P27958 384-746)
[11] = molecular target: E1E2 complex (H77) with E1 mutation N196A/N325A (HCV genotype 1a, isolate H77, UniProt P27958 192-383; P27958 384-746)
[12] = molecular target: E1E2 complex (H77) with E1 mutation R259A (HCV genotype 1a, isolate H77, UniProt P27958 192-383; P27958 384-746)
[13] = molecular target: E1E2 complex (H77) with E1 mutation D346A (HCV genotype 1a, isolate H77, UniProt P27958 192-383; P27958 384-746)
[14] = molecular target: E1E2 complex (H77) with E1 mutation S273A (HCV genotype 1a, isolate H77, UniProt P27958 192-383; P27958 384-746)
[15] = molecular target: E1E2 complex (H77) with E1 mutation W353A (HCV genotype 1a, isolate H77, UniProt P27958 192-383; P27958 384-746)
[16] = molecular target: E1E2 complex (H77) with E1 mutation R195A (HCV genotype 1a, isolate H77, UniProt P27958 192-383; P27958 384-746)
[17] = molecular target: E1E2 complex (H77) with E1 mutation G311A (HCV genotype 1a, isolate H77, UniProt P27958 192-383; P27958 384-746)
[18] = molecular target: E1E2 complex (H77) with E1 mutation N305A (HCV genotype 1a, isolate H77, UniProt P27958 192-383; P27958 384-746)
[19] = molecular target: E1E2 complex (H77) with E1 mutation S294A (HCV genotype 1a, isolate H77, UniProt P27958 192-383; P27958 384-746)
[20] = molecular target: E1E2 complex (H77) with E1 mutation Q289A (HCV genotype 1a, isolate H77, UniProt P27958 192-383; P27958 384-746)
[21] = molecular target: E1E2 complex (H77) with E1 mutation H352A (HCV genotype 1a, isolate H77, UniProt P27958 192-383; P27958 384-746)
[22] = molecular target: E1E2 complex (H77) with E1 mutation V266A (HCV genotype 1a, isolate H77, UniProt P27958 192-383; P27958 384-746)

B1: N4 IgG (antibody, V domains shown)
VH: VQLLEQSGPEVKKPGDSLRISCKMSGDSLVTTWIGWVRQKPGQGLEWMGIINPGDSSTNIYPGDSATRYGPSFQGQVTISIDKSTSTAYLQWNNVKASDTGIYYCARHVPVPISGTFLWREREMHDFGYFDDWGQGTLVIVSS
VL: ELTLTQSPGTLSLSPGERATLSCRASQSVSNNYLAWYQQKPGQAPRLLIYGASSRATGIPDRFSGSGSGTGFTLIISRLEPEDFAVYYCQQYGSSSITFGQGTRLEIKR
notes: also called IgG N4
In the case of B1, the “Binding relative to wt (%)” value [1] is reported as 4%, the “Binding relative to wt (%)” value [2] is reported as 95% and the “Binding relative to wt (%)” value [3] is reported as 89%. For the same binder, the “Binding relative to wt (%)” value [4] was 122%, the “Binding relative to wt (%)” value [5] was 30% and the “Binding relative to wt (%)” value [6] was 143%. The “Binding relative to wt (%)” value [7] was 100%, the “Binding relative to wt (%)” value [8] was 98% and the “Binding relative to wt (%)” value [9] was 17%. For the same binder, the “Binding relative to wt (%)” value [10] was 62%, the “Binding relative to wt (%)” value [11] was 54% and the “Binding relative to wt (%)” value [12] was 102%. The “Binding relative to wt (%)” value [13] was 83%, the “Binding relative to wt (%)” value [14] was 70% and the “Binding relative to wt (%)” value [15] was 70%. For the same binder, the “Binding relative to wt (%)” value [16] was 121%, the “Binding relative to wt (%)” value [17] was 87% and the “Binding relative to wt (%)” value [18] was 42%. The “Binding relative to wt (%)” value [19] was 71%, the “Binding relative to wt (%)” value [20] was 94% and the “Binding relative to wt (%)” value [21] was 60%. The “Binding relative to wt (%)” value [22] was 92%.

Reference: patent publication US20110311550A1 (Scripps Research, published 2011)
